Laboratory results published in article PMC9474520, “Biochemical and structural insights of multifunctional flavin-dependent monooxygenase FlsO1-catalyzed unexpected xanthone formation” (Nature Communications, 2022).

B1: FlsO2 (Micromonospora rosaria) (protein)
chain: MDTDVIVVGAGPTGLMLAGELRLGGARVVLVERLAEPTGQSRGLGFTARAMETLDQRGLLPRFGELETSPRGHFGGVQFDYSVLPDAHFGARGVPQSQTEDVLEKWATETGVDIRRGWELRELTDDGSGVTIVADTPDGTRQLRAAYLVGCDGGQSTVRKLVGFEFEGTPATRGMYLADVVGCALRPRFLGEKLANGMVMAAPLAEGVDRIIVCEHGTPPTERERQVSFEEVAAAWERITGESISHGGSLWVSSFTDATRQATEYRRGRVLLAGDAAHIHLPAAGQGLSVGVQDAANLGWKLAAVVRGHAPEGLLDTYHDERHPVGARLLLNTRVQNAVFLGGEEAEPLRTLFTELISYDTVGRHLAGMVSGLEVRYDVGAGDHPLLGRRLPPRALHGAAGATTTTELLHPATGVLLDLTDDAGLRAVAAGYGDRVAVTVATSDAAEFAGVPALLVRPDGYVAWVGAEPDGLAAALRRWFGEPAPAGQ
notes: expressed from pCSG5102 (previously constructed), E. coli BL21(DE3); purified similarly to FlsO1
B2: FlsO1 (Micromonospora rosaria) (protein)
chain: MNTIDAEVIIVGAGPTGLMLAGELRLNNVSTIVLDRLAEPMQQSRALGFSARTIEEFDQRGLLARFGEVGTIPFGHFGGVPLDYRVIKGGSYGARGIPQSRTEGMLAQRAVELGAELRRGQEVVSIDDDGTGVAVVVRTADGEQTLRAKYLVGADGARSTVRKAAGIDFPGTDPTMEMWLADVAGCDLRLRFSGELVPGGMVMVLPLGPVAQRVVVFEHATGLRNSTEPPTFAEVADAFERLTGEDIRGGKPLWVSWFTDSSRQAAEYRRGRILLAGDAAHIHMPIGGQGMSAGIQDAVNLGWKLAAEIHGHAPEGLLDTYHTERHPVDGRVVMNTLAQRWLYLGGEAMQPLRELLGELVRYPDVQEHLVGMVTGLDIRYDVGAGEHPLLGRRIPNQELVGEFDGSGKSTTFEQLHRGRGVLFAFGDDTAGPQAATGWTDRVDVVRATPHTADPDDPFHGLDAVLVRPDGYVAWVAPAGAGAAGLDEALSRWFGPSR
notes: (His)6-tagged, pET28a (pCSG5205), E. coli BL21(DE3); Ni-NTA; homodimer; crystals from Q108G/R109G surface mutant

Substrate: CC1=CC(=O)[C@@H]2c3cc4cccc(O)c4c(O)c3C(=O)C[C@]2(O)C1
Experiment: HPLC of dehydrorabelomycin formation
Format: biochemical, Micromonospora rosaria
Conditions: 2 mM NADPH, 50 mM phosphate pH 7.0, 30 °C

| Protein | Km (0.25 μM enzyme) [µM] | Km (0.5 μM enzyme) [µM] |
| --- | --- | --- |
| B1 | 143.2 | – |
| B2 | – | 253.4 |
